Patent publication US5968815

Experiments:
mouse CD8 (LYT2) (mouse) = mouse CD8 (LYT2) (mouse) (UniProt P01731)
[1] = target: Nef (SIV) peptide 1-15 (SIV strain Mac251)
[2] = target: Nef (SIV) peptide 16-30 (SIV strain Mac251)
[3] = target: Nef (SIV) peptide 221-235 (SIV strain Mac251)
[4] = target: Nef (SIV) peptide 40-60 (SIV strain Mac251)
[5] = target: Nef (SIV) peptide 84-96 (SIV strain Mac251)
mouse CD4 (L3T4) (mouse) = mouse CD4 (L3T4) (mouse) (UniProt P06332)

Substance	inhibition of the proliferative response of LN cells to beta-galactosidase (mouse CD8 (LYT2) (mouse)) [%]	proliferation of lymph node cells (cpm) [1] [cpm]	proliferation of lymph node cells (cpm) [2] [cpm]	proliferation of lymph node cells (cpm) [3] [cpm]	proliferation of lymph node cells (cpm) [4] [cpm]	proliferation of lymph node cells (cpm) [5] [cpm]	inhibition of the proliferative response of LN cells to beta-galactosidase (mouse CD4 (L3T4) (mouse)) [%]
anti-CD8 monoclonal antibody, hybridoma H35 17-2 (rat anti-mouse LYT2)	30	–	–	–	–	–	–
lymph node cells of unimmunized rats (control of FIG. 14) (cells without a defined receptor)	–	< 250	< 250	< 250	< 250	< 250	–
anti-CD4 monoclonal antibody, hybridoma GK 1-5 (rat anti-mouse L3T4)	–	–	–	–	–	–	70
lymph node cells of Balb/c mice immunised with non-recombinant BCG strain 1173P2 (cells without a defined receptor)	–	< 2500	< 2500	< 2500	< 2500	5000	–
